Source: patent publication US20260028391A1
Like-named read-outs stand apart in the source and are kept apart here.

How the values were obtained:
[1] = molecular target: RSV fusion glycoprotein (RSV-F) of the RSV used in the neutralization of Table 33 (respiratory syncytial virus, strain not stated); test: cell-based or functional assay
[2] = molecular target: fusion glycoprotein (F) of the MPV used in the neutralization of Table 34 (metapneumovirus); test: cell-based or functional assay
[3] = molecular target: fusion glycoprotein of RSV A2 BPR-344-00 (BEI NR-12149) (respiratory syncytial virus A2) (UniProt P03420); test: cell-based or functional assay
[4] = molecular target: fusion glycoprotein of the RSV used in the neutralization assay of Example 1 (respiratory syncytial virus (strain not stated)); test: cell-based or functional assay
[5] = molecular target: fusion glycoprotein of RSV B1 BPR-348-00 (BEI NR-4052) (respiratory syncytial virus B1) (UniProt O36634); test: cell-based or functional assay
[6] = molecular target: MPV fusion glycoprotein with the D280N mutation (MPV-F N280) (metapneumovirus); test: SPR; F protein loaded on streptavidin sensors, mAb in solution
[7] = molecular target: MPV fusion glycoprotein without the D280N mutation (MPV-F D280) (metapneumovirus); test: as above
[8] = molecular target: RSV fusion glycoprotein (RSV-F) (respiratory syncytial virus); test: as above
[9] = molecular target: RSV fusion glycoprotein (RSV-F) (respiratory syncytial virus (strain not stated)); test: SPR; sensors loaded with RSV-F, mAb in solution (Experiment 2)
[10] = molecular target: RSV B 9719/09 fusion glycoprotein (F) (RSV B, strain 9719/09); test: cell-based or functional assay
[11] = molecular target: fusion glycoprotein (F) of MPV A GFP (Tables 41 and 43) (metapneumovirus A); test: cell-based or functional assay
[12] = molecular target: RSV-B B9320 F protein (RSV B, strain B9320); test: cell-based or functional assay
[13] = molecular target: fusion glycoprotein (F) of RSV A GFP (Tables 41 and 42) (respiratory syncytial virus A); test: cell-based or functional assay
[14] = molecular target: RSV-long strain fusion glycoprotein (F) (RSV, long strain) (UniProt P12568); test: cell-based or functional assay
[15] = molecular target: fusion glycoprotein (F) of RSV B GFP (Tables 41 and 42) (respiratory syncytial virus B); test: cell-based or functional assay
[16] = molecular target: RSV A fusion glycoprotein (F), virus of the neutralisation assays of Tables 54 and 57 (RSV A); test: cell-based or functional assay
[17] = molecular target: RSV-B B18537/62 F protein (RSV B, strain B18537/62) (UniProt P13843); test: cell-based or functional assay
[18] = molecular target: RSV A Randall fusion glycoprotein (F) (RSV A, strain Randall); test: cell-based or functional assay
[19] = molecular target: RSV A2 BPR-344-00 (BEI NR-12149) fusion glycoprotein (F) (RSV A, strain A2) (UniProt P03420); test: cell-based or functional assay
[20] = molecular target: RSV B1 BPR-348-00 (BEI NR-4052) fusion glycoprotein (F) (RSV B, strain B1) (UniProt O36634); test: cell-based or functional assay
RSV-A F (RSV A) [21] = test: BLI
RSV-B F (RSV B) [22] = test: BLI
[23] = molecular target: biot-RSV-F wt (respiratory syncytial virus (RSV)); test: BLI (Octet), biotinylated F on SA sensors, mAb 5 µg/ml
[24] = molecular target: RSV F A G446E (RSV A, strain A2) (UniProt P03420); test: FACS, % binding to RSV F A variants
[25] = molecular target: RSV F A S433P (RSV A, strain A2) (UniProt P03420); test: FACS, % binding to RSV F A variants
[26] = molecular target: RSV F A S443P-K445N (RSV A, strain A2) (UniProt P03420); test: FACS, % binding to RSV F A variants
[27] = molecular target: RSV F A, A2 Ref (RSV A, strain A2) (UniProt P03420); test: FACS, % binding to RSV F A variants
[28] = molecular target: RSV F A S433P-G446E (RSV A, strain A2) (UniProt P03420); test: FACS, % binding to RSV F A variants
[29] = molecular target: RSV F A L203I (RSV A, strain A2) (UniProt P03420); test: FACS, % binding to RSV F A variants
[30] = molecular target: RSV F A N208Y-N671I (RSV A, strain A2) (UniProt P03420); test: FACS, % binding to RSV F A variants
[31] = molecular target: RSV A1998/3-2 fusion glycoprotein (F) (RSV A, strain A1998/3-2); test: cell-based or functional assay
[32] = molecular target: RSV A 2000/3-4 fusion glycoprotein (F) (RSV A, strain A 2000/3-4); test: cell-based or functional assay
[33] = molecular target: RSV A2 (screening GFP strain) fusion glycoprotein (F) (RSV A); test: cell-based or functional assay
[34] = molecular target: RSV A1997/12-35 fusion glycoprotein (F) (RSV A, strain A1997/12-35); test: cell-based or functional assay
[35] = molecular target: RSV B (screening GFP strain) fusion glycoprotein (F) (RSV B); test: cell-based or functional assay
[36] = molecular target: RSV A2 VR 1540 fusion glycoprotein (F) (RSV A, strain A2 (VR 1540)) (UniProt P03420); test: cell-based or functional assay
[37] = molecular target: RSV A 2001/3-12 fusion glycoprotein (F) (RSV A, strain A 2001/3-12); test: cell-based or functional assay
[38] = molecular target: RSV A2 BPR-344-00 (BEI NR-12149) fusion glycoprotein (F) (RSV A, strain A2) (UniProt P03420); test: cell-based or functional assay; remark: listed apart in the source
[39] = molecular target: RSV Ds Red 5 fusion glycoprotein (F) (RSV, strain printed as Ds Red 5); test: cell-based or functional assay
RSV-A F (RSV A) [40] = test: affinity; method not given
RSV-B F (RSV B) [41] = test: affinity; method not given
RSV F B, B Ref (RSV B) = test: FACS, % binding to RSV F B variants
RSV F B S443P (RSV B) = test: FACS, % binding to RSV F B variants
[42] = molecular target: RSV F B K68N-N201S (RSV B); test: FACS, % binding to RSV F B variants
RSV F B N201S (RSV B) = test: FACS, % binding to RSV F B variants
[43] = molecular target: RSV F B K68N-N208S (RSV B); test: FACS, % binding to RSV F B variants
RSV F B N208D (RSV B) = test: FACS, % binding to RSV F B variants
RSV F B N208S (RSV B) = test: FACS, % binding to RSV F B variants
[44] = molecular target: RSV fusion glycoprotein (RSV-F) of RSV-B (B1) (respiratory syncytial virus B, strain B1) (UniProt O36634); test: cell-based or functional assay
[45] = molecular target: RSV fusion glycoprotein (RSV-F) of RSV-A (A2) (respiratory syncytial virus A, strain A2) (UniProt P03420); test: cell-based or functional assay

For D25-rIgG1 (antibody), the IC50 (ng/mL) in neutralization against RSV [1] was 0.929 ng/mL and the IC50 (ng/mL) in neutralization against MPV [2] was over 2000 ng/mL.

MEDI8897 (antibody) gave an RSV Neutralization by MPK44 and MPK65-v2 - IC50 [3] of 0.2 ng/mL, an RSV and MPV Neutralization (IC50 ng/ml) [3] of 0.208 ng/mL and an RSV Neutralization - IC50 [4] of 0.8 ng/mL. The RSV Neutralization by MPK44 and MPK65-v2 - IC50 [5] was 0.4 ng/mL, the RSV and MPV Neutralization (IC50 ng/ml) [5] was 0.447 ng/mL and the Kd [6] was 100 nM. It also gave a Kd [7] of 100 nM, a Kd [8] of 1 pM and a Kd [9] of 1 pM.

Work on MEDI8897-rIgG1-YTE (antibody) yielded an IC50, virus neutralization [10] of 1.25 ng/mL, an IC50 (ng/ml), MPV A GFP neutralization [11] of over 2000 ng/mL and an EC50, virus neutralization (Fab testing) [12] of 0.0102 nM. For the same substance, the IC50 (ng/ml), RSV A GFP neutralization [13] was 0.483 ng/mL, the EC50, virus neutralization (Fab testing) [14] was 6.9 pM and the IC50 (ng/ml), RSV B GFP neutralization [15] was 0.419 ng/mL. For the same substance, the IC50, neutralization of RSVA [16] was 7.74 ng/mL, the EC50, virus neutralization (Fab testing) [17] was 0.011 nM and the IC50, virus neutralization [18] was 2.42 ng/mL. For the same substance, the IC50, virus neutralization [19] was 0.2 ng/mL, the EC50, virus neutralization (Fab testing) [20] was 8.8 pM and the IC50, virus neutralization [20] was 0.4 ng/mL. The Kd (RSV-A F (RSV A) [21]) was 0.035 nM, the Kd (RSV-B F (RSV B) [22]) was 0.221 nM and the Kd [23] was 0.0397 nM. For the same substance, the % binding [24] was 28.5%, the % binding [25] was 35.3% and the % binding [26] was 34.5%. The % binding [27] was 60.2%, the % binding [28] was 35.8% and the % binding [29] was 0.04%. It also gave a % binding [30] of 0.049%, an IC50, virus neutralization [31] of 0.9 ng/mL and an IC50, virus neutralization [32] of 0.57 ng/mL. For the same substance, the IC50, virus neutralization [33] was 1.02 ng/mL, the IC50, virus neutralization [34] was 0.76 ng/mL and the IC50, virus neutralization [35] was 1.14 ng/mL. For the same substance, the IC50, virus neutralization [36] was 1.14 ng/mL, the IC50, virus neutralization [37] was 0.63 ng/mL and the IC50, virus neutralization [38] was 1.01 ng/mL. It also gave an IC50, virus neutralization [39] of 0.48 ng/mL, a Kd (RSV-A F (RSV A) [40]) of 1 pM and a Kd (RSV-B F (RSV B) [41]) of 1.22 nM. For the same substance, the % binding (RSV F B, B Ref (RSV B)) was 57.3%, the % binding (RSV F B S443P (RSV B)) was 38.5% and the % binding [42] was 0.056%. The % binding (RSV F B N201S (RSV B)) was 27.3%, the % binding [43] was 0.031% and the % binding (RSV F B N208D (RSV B)) was 0.026%. It also gave a % binding (RSV F B N208S (RSV B)) of 0.035%.

Work on “MEDI8897-rIgG1-YTE (nirsevimab) (antibody)” yielded an IC50 (ng/mL) in neutralization against RSV [1] of 0.549 ng/mL, an IC50 (ng/mL) in neutralization against MPV [2] of over 2000 ng/mL and a Neutralization (IC50, ng/ml) [44] of 0.4 ng/mL. It also gave a Neutralization (IC50, ng/ml) [45] of 0.2 ng/mL.
